Reference: the DeepSol protein solubility set

Assay: soluble on expression in E. coli; label from the status in PepcDB or PDB records

| Sequence | soluble on expression in E. coli |
| --- | --- |
| SLDIRALGYFVAQTDAPQEWQHYAEQVLGMMTAPTDDGGFYIKMDERPYRMLVIPGADKRYFASGWELTGAKAYNNAKQTLLDKGIAFEEANKALCEQRRVQNILIVNDPAGNRHELYWGHVSDCQPFTSPQGVPAFITGDMGLGHTVLPAPNFDETFAFLTDVLGFELSDLFNFKPAPEADPIRIYFMHCGNARHHSLAICEFPVPSGCVHAMVEVENMTEVGRAHDRQQQHQVQLSATLGQHLNDKMTSFYMKTPSGFDLEYGFGGLQVENWEEHCAFEFSRVSLWGHDFSVGEKEG | not soluble |
| SLEHFDDKSQLKRNGFYFSYNVDKENIEHWISAILFQVLKDKEDIVILSLGVDTLVGDSLGPLVGSILKRNGIPNVYGTLDRTVNASNIIKILDEIHERFKNPYILVVDAAVTAENNINDIVLRNGGFTPGFGVYRQLPTVGDFSLVGVVNKEDEREHNLIELLKKCRFDEVLKLARIISKILVLTFARMNKGDK | soluble |
| SLHELSIVESLIELCEENALNNKAYNVQEIYVKIGRLSGIEVDLFKRCFETFKENSNICKNAKLFIELAPLEILCLKCDQTSILEENVFKCPKCQSIEYKIIQGEDLHLMRLVMK | soluble |
| SLIENSHVKKDDIWPSGGQMTVKDLTAKYTEGGNAILENISFSISPGQRVGLLGRTGSGKSTLLSAFLRLLNTEGEIQIDGVSWDSITLEQWRKAFGVIPQKVFIFSGTFRKNLDPNAAHSDQEIWKVADEVGLRSVIEQFPGKLDFVLVDGGCVLSHGHKQLMCLARSVLSKAKILLLDEPSAHLDPVTYQIIRRTLKQAFADCTVILCEARIEAMLECDQFLVIEENKVRQYDSIQKLLNERSLFRQAISPSDRVKLFPHRNSSKCKSKPQIERETLVTMENVTAFWEEGGTPVLKDINFKIERGQLLAVAGSTGAGKTSLLMMIMGELEPSEGKIKHSGRISFCSQNSWIMPGTIKENIIFGVSYDEYRYRSVIKACQLEEDISKFAEKDNIVLGEGGITLSGGQRARISLARAVYKDADLYLLDSPFGYLDVLTEKEIFESCVCKLMANKTRILVTSKMEHLKKADKILILHEGSSYFYGTFSELQNLRPDFSSKLMG | soluble |
| SLKGLKAYRLDVPPMLADRGIDRMLAFAVPLTVRFRGIKVREGTLLHGPEGWGEWSPFWDYDPVESASWLRAGIEGATRRLPVARRDRVPINVTIPVVDADRAGRMAAESACLTAKVKVADPRSDLREDCRRVAAVREAMPDGHIRVDANTAWDVDAAVRAITELDAAAEGLEYVEQPCASVAELAQVRRKVNVPVAADESVRRAEDPLAVARAGAADLLIVKAQPLGGVARALEVIDATGLPAVVSSALDTSIGIGLATYLAAALPSLDHACGLGTIRLFQGDVSASPLLPVDGYLRPRRGEVDVEVEESDTDLCPRWSQRLALTVAALVERERS | not soluble |
| SLKTLFEVKQLLKQYGAFIYTRDLDADMQLMQMEMEELHRLGLIERGEFQQAMLVLKREQRAAKMGERAND | soluble |
| SLKVAIFDAFNGASGDMILASLLGVGISEEEIDEVVKALGIDVNYSMTTVSVRGISARRVEVEERDGERSFKEVLEIIRSSNLEEGVKKNAIAVFELIARAEGKVHGRDYREGVFHEVGADDAIFDVVCCVKAFENLKTAGYEFFATPVRAGSGFVEFSHGKYPVPPPAVLEILKSSNLEVVMDGEGELLTPTGAAILSHYCKPLKPFPIRVKEVSYGAGKRETDVPNVLRLILGETAFHDSIVVIETSVDDLSGEMIGYAMKKLLERDDVLDAVIIPAYGKKMRPASILKVISPTHRSEEVAAEVMRLTGSLGIRIIPVHHRLISERMEEVVKVEISGKEFDVRVKRSYPGFRHLKPEFDDIAVIADELNIPPHVVYREIVRKIVGAENADSNGQ | soluble |
| SLLEECDFPTVKDIENEFEQLKEKNVRAVARLITMAEEQAKTKEAAVTLDDKLVSLKKLNQPSPPVLGITGTGGAGKSSLTDELVRRFLNEFTDKTVAILSIDPTKQKTGGALLGDRIRMNAIHSPRVFMRSLATRGSRTEISESIRDAIAVVKAAAYDLVIVETSGIGQGDAEITEIADISMYVMTSEYGAPSQLEKIDMIDFADVIAINKFDRKGSEDALRHVRKQYQRSHQRFDEPLEAMPVYGTIASQFNDIGTNTLFAAVIDILNKKCKTSWDTSIETSKEVMKQNIIIPPERTQYLRDIVQTVKQYK | soluble |
| SLLSIIPISAGIPLTETEPKQKWLEEWSKQLFVKVSIDSEYGWGEVLPAAFNSPALYADIVKRLEPSLNGMEISEPGIIWEKLRKLTFSGGYGPVIGAISGVDIALWDLKAKLSKLYLGDIFGKNEQKIARYASLSRYANYEAVIRASKNIVESGFKAIKLHQTKDDTLESVKRFREEIGYGVDLMVDLNCAMNIDEAIKFANSVQRYELKWVEEPIWPPDDLASLKKINDIVPVAAGENFFDFFKFEDAVHLEALTYYQPDVTKVGGLTPTLKILDLLKKNHEQVAFHNRPHNGWIGIFASIAAARMNGVDALIETPPNGVPSQYFRYNAMITSEVIAPNGVGLSIEPIEPLPQPKDEKILIFHD | soluble |
| SLMQALARTGYAGPLSLEIFNDAFRAAPTEATAIDGLRSLIWIEELAEGAAWSEASPPAVGYDGVHFIEFTLDEESAAPLGEFFSALGFRHIGRHRSKNVELWHQGDIHLVLNFETDSFAHTFRLLHGTSVCAVGVRVNDLDSAVTRAAHYKAQWFRGPVGEGEMEIPALRGIEGSLVYLVDDAQAREMQWKTDFHLFEDGQDDDAGLINIDHISYVLPPTQLLSWLLFHRTVFGFDAGPEHEIADPHGMVVSQTVTSPDNSVRIPLTVSSARETLPGRFLSEHQGGVQQIAFASGDIFATIDAMLARGLPMLRIPANYYDDLAARFDLDDALLEAMRSRNILFDRNDDGDFFHAYTETFMGRFFFEVVERRGSYSQFGAVNAPIRLAAQAGQQREG | soluble |
| SLPIASTATQMGSNKTRIFARQPAKAPPPLAWLSRPRDPRATAIAAAGQQSSRRVSKRELESHGSATDAWTAIHGVVYDITAYFRFHPGGAEILFIEAAGKDSTAVFDEMHPWVNVAWLLKDYRIGLYAPESEDDGGDDDDDDRTMTSPE | soluble |
| SLPIDAVLPALRQALTTRHEAVLEAPPGAGKTTRVPLALLEETWLAGQTILMLEPRRLAARAAAERLASELGEKVGETVGYRIRLESCVGPKTRIEVVTEGILTRCLQDDPALEGVGLLIFDEFHVLPFA | not soluble |
| SLQEAETAARLHEVHGSWQLACAAAAKKDSADAASSTGGETKPPCAIAQVQLEEKTRKLVVSVEFRLDDAATPDRLNGTMVLPFGLAVTKLFSVKSGNMRLQEVQVSTCLPVGCIVSFTPFIELVSALKAEQTLTIEAPDLQGRIVSFQLQGKGFPEALKRLGEVR | not soluble |
| SLQLKSEKARIILSGEPTLLIDKGKIDISALKSQRLNINDLMEELRLKNYFNVEDIEYAILETSGQISLIPKTHLTNATKEDLNLKVKQENVPITIILDGKVNTDNIKYLNKDADWLMKELKKNKIDSPKDVFLALIDSKGKFYYQKYNN | soluble |
| SLSKKSVQTLEDIARLANVSRSTVSRALNNSPLISKQTRERIQAIAREHNFCLNVSGRNLRLRSSRTIAFVAPMCFPPVASAEHLFGLEMLGAIWSGLHELNYDCLIVHSASQDTDWVHRYLHSGRVDGFILMESSFKQTQIEALVQMKVPFIVWGMPVSPFNYCSVTGDNVAGGRLATEYLIRTGRQRIAFLGGLKGTLTVENRFKGYEQALQLAGRALDPALIVYGDYTYASGAAGMQRLLERAPDLDAVFVNSDLMAIAAINVIQESGRSVPADIAVVGYDDLSIAGYATLPLTTIRQNIPLAGKLLAQNLIQHIETGLVTNVTVPVELVIRKSEG | not soluble |
| SLSPRRLRLLLVDENPTARAVIGRRLSHRHYDVTVVEDGFAAQKTLIIQPSDIILIDMDLQLLPAIGTMEKIRAAHPAGHACIVMIGGASDTPKMIAALDAGADDHIVKPFDFDMLDARLRRVHARAEREG | not soluble |
| SLSRISPGNFSTNSYTSTIIKDVRFCLLLCRSLMEGWRITLLNEQEKTIFVDADACPVKDEILQTASEYEVQVLFVASFEHYQLSRSNEEKWKYVDPHKEAADLYIANHVKPGDIVVTQDIGLASLLLNRNVSVMSERGRLYKEDTIDFALEGRHFSGKQRRKGVYAKGPKKLNKEDRERFITLLQKILSNDEGILH | not soluble |
| SLSSVNCIEQTTEWTACSKSCGMGFSTRVTNRNRQCEMLKQTRLCMVRPCEQEPEQPTDKKGKKCLRTKKSLKAIHLQFKNCTSLHTYKPRFCGVCSDGRCCTPHNTKTIQAEFQCSPGQIVKKPVMVIGTCTCHTNCPKNNEAFLQELELKTTRGKM | soluble |
